The target of the assay is USP22 (ubiquitin-specific protease 22) (UniProt Q9UPT9). The assay can be described thus: co-IP of myc-MYH9 and Flag-USP22. The settings on record: reference: wild-type MYH9; sites S1943.

“MYH9 (non-muscle myosin heavy chain 9) (from UniProt P35579) MYH9-S1943A”: the “binding against the reference” value is “lost”.

The values above are taken from publication PMC11412978.
